From article PMC11794977, “Inhibitory Potential and Binding Thermodynamics of Scyllatoxin‐Based BH3 Domain Mimetics Targeting Repressor BCL2 Proteins” (Journal of Molecular Recognition, 2025)

Tests used:
[1] = target: T1, Bcl‐2‐ΔTM (recombinant His‐tagged Bcl‐2 without its transmembrane domain); test: fluorescence polarisation; competition: 100 nM Bcl‐2‐ΔTM and 25 nM ^FluBax‐BH3^ΔB pre‐incubated 1 h, then acetylated peptide (100 μM to 2.3 pM) added for 1 h; binding buffer (50 mM Tris, 100 mM NaCl, pH 8.0); ambient temperature; triplicate; details: both partners purified
T1 construct: also called Bcl‐2 (proper); Bcl‐2‐ΔTM proteins

[2] = target: T1, Bcl‐2‐ΔTM (recombinant His‐tagged Bcl‐2 …); test: ITC; 200 μM acetylated peptide injected into 20 μM Bcl‐2‐ΔTM in the cell; binding buffer (50 mM Tris, 100 mM NaCl, pH 8.0); 25°C; one‐site model; Kd as reciprocal of Ka; triplicate; details: both partners purified

B1: ^AcBax‐BH3^ΔB (peptide)
chain: STKKLSEXLKRIGDELDSNM
HELM: PEPTIDE1{[ac].S.T.K.K.L.S.E.[Abu].L.K.R.I.G.D.E.L.D.S.N.M.[am]}$$$$V2.0
SMILES: CC[C@H](NC(=O)[C@H](CCC(=O)O)NC(=O)[C@H](CO)NC(=O)[C@H](CC(C)C)NC(=O)[C@H](CCCCN)NC(=O)[C@H](CCCCN)NC(=O)[C@@H](NC(=O)[C@H](CO)NC(C)=O)[C@@H](C)O)C(=O)N[C@@H](CC(C)C)C(=O)N[C@@H](CCCCN)C(=O)N[C@@H](CCCNC(=N)N)C(=O)N[C@H](C(=O)NCC(=O)N[C@@H](CC(=O)O)C(=O)N[C@@H](CCC(=O)O)C(=O)N[C@@H](CC(C)C)C(=O)N[C@@H](CC(=O)O)C(=O)N[C@@H](CO)C(=O)N[C@@H](CC(N)=O)C(=O)N[C@@H](CCSC)C(N)=O)[C@@H](C)CC
B1 gave an IC50 [1] of 141 nM, a Kd [2] of 191 nM and a dH [2] of -5.43 kcal/mol. For the same binder, the “stoichiometry N” value [2] was 0.93.
